Where “and” joins values, the source holds several entries; their conditions need not be identical. Equal values may be shown once.
Tests used:
[1] = target: chicken α4β2 nicotinic acetylcholine receptor expressed in Xenopus oocytes (chicken) (UniProt P09482); assay: cell-based or functional assay
[2] = target: T1, nAChR alpha 7 subunit (chick alpha 7 construct) expressed in 293T cells (chick, UniProt P22770 24-502); assay: Far Western blot of extracts of transfected 293T cells
T1 construct: It was in the extract of transfected 293T cells, separated by SDS-PAGE and probed by Far Western
T1 sequence (P22770 24-502): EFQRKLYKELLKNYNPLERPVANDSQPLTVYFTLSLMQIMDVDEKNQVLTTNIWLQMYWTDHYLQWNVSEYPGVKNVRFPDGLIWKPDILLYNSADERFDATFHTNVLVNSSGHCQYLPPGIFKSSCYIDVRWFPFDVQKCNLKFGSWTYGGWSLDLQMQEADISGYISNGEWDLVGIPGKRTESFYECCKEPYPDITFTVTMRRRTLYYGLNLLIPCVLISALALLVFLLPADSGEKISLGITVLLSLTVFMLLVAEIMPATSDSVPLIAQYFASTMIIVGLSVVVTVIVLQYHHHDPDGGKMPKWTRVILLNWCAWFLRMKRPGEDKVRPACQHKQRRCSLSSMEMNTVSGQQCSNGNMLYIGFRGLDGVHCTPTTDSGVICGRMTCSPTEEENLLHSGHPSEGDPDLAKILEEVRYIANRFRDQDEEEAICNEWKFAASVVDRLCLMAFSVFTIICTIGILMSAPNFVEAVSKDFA
Text: Far Western Analysis. A fragment of the Lynx1 cDNA corresponding to the mature polypeptide was cloned in frame to the C-terminus of the coding sequence for the secreted human placental alkaline phosphatase (referred to as Lynx/AP). The APtag-4 vector was provided by Dr. John Flanagan (Cheng, H.-J. et al (1995) Cell 82, 371-381). Constructs were transfected into 293T cells using calcium phosphate precipitation. Conditioned media was collected and treated as described (Cheng, H.-J. et al (1995) Cell 82, 371-381): 20 μg of crude extract was electrophoretically separated and transferred to PVDF membrane (Immobilon P, Millipore). Filters were renatured as specified (Rodriguez, P. L. & Carrasco, L. (1994) Biotech. 17, 702-707), incubated overnight with equal amounts of cultured supernatants containing lynx/AP or unfused AP, washed, and treated with NBT/BCIP substrate according to manufacturer's directions (Pharmacia). To determine the relative activity of Lynx/AP protein compared to unfused AP, a dilution series of cultured supernatants was blotted onto nitrocellulose paper with a slot blot apparatus and reacted for AP activity.
The cells were harvested and lysed and cell extract was run out on an SDS-PAGE gel. […]

Chain of chicken α4β2 nicotinic acetylcholine receptor expressed in Xenopus oocytes (chicken) (P09482 24-622, chain 1 of 2): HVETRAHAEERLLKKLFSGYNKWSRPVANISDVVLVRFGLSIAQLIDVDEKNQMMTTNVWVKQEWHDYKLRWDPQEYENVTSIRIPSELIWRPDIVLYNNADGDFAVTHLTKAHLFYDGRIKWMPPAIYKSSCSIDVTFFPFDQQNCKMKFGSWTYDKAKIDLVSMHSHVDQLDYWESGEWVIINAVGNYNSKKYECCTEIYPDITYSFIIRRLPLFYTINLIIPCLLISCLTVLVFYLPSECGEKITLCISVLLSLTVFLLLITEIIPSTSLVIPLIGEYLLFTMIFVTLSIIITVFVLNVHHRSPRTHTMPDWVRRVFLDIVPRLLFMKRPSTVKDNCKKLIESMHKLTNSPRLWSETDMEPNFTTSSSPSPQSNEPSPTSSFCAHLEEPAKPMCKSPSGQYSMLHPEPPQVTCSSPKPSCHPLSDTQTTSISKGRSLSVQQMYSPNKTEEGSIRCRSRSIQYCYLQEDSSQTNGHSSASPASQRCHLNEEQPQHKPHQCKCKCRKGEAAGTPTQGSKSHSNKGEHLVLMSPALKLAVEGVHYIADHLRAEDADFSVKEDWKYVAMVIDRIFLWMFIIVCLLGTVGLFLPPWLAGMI
Chain of chicken α4β2 nicotinic acetylcholine receptor expressed in Xenopus oocytes (chicken) (P09484 19-491, chain 2 of 2, further chain): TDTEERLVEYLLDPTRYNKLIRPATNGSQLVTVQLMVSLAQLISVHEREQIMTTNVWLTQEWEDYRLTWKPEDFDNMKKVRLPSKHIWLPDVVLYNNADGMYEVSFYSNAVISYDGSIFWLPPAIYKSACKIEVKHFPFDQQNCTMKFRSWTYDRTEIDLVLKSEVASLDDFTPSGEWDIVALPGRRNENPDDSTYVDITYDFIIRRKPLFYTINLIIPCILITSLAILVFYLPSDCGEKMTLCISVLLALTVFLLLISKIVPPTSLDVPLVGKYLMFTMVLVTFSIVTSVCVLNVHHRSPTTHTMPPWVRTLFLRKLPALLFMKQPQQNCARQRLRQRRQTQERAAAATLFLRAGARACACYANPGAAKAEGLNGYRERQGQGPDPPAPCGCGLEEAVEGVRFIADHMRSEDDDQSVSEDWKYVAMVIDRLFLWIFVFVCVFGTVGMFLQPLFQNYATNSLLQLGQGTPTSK

Row | amplitude of the ACh-evoked macroscopic currents [1] | binding result [2] | Molecule
1 | 30% to 40% (2×) and 35% | – | Lynx1-HA (CMV2611), column purified Lynx1 (from UniProt P0DP60 21-92) (ligand)
2 | – | binds | Lynx/AP fusion protein (other, It was used as conditioned medium of transfected 293T cells; also called Lynx1-alkaline phosphatase (AP) fusion; Lynx/AP supernatant; not shown: secreted human placental alkaline phosphatase from the APtag-4 vector) LECHVCAYNGDNCFKPMRCPAMATYCMTTRTYFTPYRMKVRKSCVPSCFETVYDGYSKHASATSCCQYYLCN

— US20100004162A1 (ROCKEFELLER UNIVERSITY, published 2010)
